Here are results for nine molecules from patent US20240261333A1, “NOVEL TARGETS FOR ENHANCING ANTI-TUMOR IMMUNITY” (THE BROAD INSTITUTE, INC., priority 2021, published 2024).

The labels stand for the following.
T1: B3GNT2 (Homo sapiens, UniProt Q9NY97)
T1 construct: The respective ORFs of candidate genes [CD274 (NM_014143), MCL1 (NM_021960), JUNB (NM_002229), and B3GNT2 (NM_006577)] were synthesized; expressed in transfected cells; host or cells: A375 melanoma cells (lentiviral ORF overexpression)
T1 sequence (Q9NY97 1-397): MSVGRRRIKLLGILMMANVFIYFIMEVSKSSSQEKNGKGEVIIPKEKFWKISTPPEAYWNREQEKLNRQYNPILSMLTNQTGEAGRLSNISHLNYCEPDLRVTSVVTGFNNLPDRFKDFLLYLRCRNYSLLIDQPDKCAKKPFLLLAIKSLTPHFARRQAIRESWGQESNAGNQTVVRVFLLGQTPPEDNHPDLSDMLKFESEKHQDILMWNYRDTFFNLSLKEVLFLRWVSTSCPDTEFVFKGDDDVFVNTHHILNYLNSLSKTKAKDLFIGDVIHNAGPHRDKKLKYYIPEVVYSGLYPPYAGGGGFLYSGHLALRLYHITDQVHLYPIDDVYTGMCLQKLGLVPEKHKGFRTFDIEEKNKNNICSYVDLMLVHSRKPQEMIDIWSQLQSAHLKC

B1: TTC13 (protein)
chain: MAPAGCCCCCCFWGGAVAAAGAARRVLLLLLLGVLSAGLRPGALATEHYSPLSLLKQELQHRQQQEAPAGGGGCSPQSGDWGDQYSAECGESSFLNFHDSDCEPKGSSPCDSLLSLNTEKILSQAKSIAEQKRFPFATDNDSTNEELAIAYVLIGSGLYDEAIRHFSTMLQILSPLGRINEAVNDLTKAIQLQPSARLYRHRGTLYFISEDYATAHEDFQQSLELNKNQPIAMLYKGLTFFHRGLLKEAIESFKEALKQKVDFIDAYKSLGQAYRELGNFEAATESFQKALLLNQNHVQTLQLRGMMLYHHGSLQEALKNFKRCLQLEPYNEVCQYMKGLSHVAMGQFYEGIKAQTKVMLNDPLPGQKASPEYLKVKYLREYSRYLHAHLDTPLTEYNIDVDLPGSFKDHWAKNLPFLIEDYEEQPGLQPHIKDVLHQNFESYKPEVQELICVADRLGSLMQYETPGFLPNKRIHRAMGLAALEVMQAVQRTWTNSKVRMNGKTRLMQWRDMFDIAVKWRRIADPDQPVLWLDQMPARSLSRGFNNHINLIRGQVINMRYLEYFEKILHFIKDRILVYHGANNPKGLLEVREALEKVHKVEDLLPIMKFNTKTKDGFTVNTKVPSLKDQGKEYDGFTITITGDKVGNILFSVETQTTEERTQLYHAEIDALYKDLTAKGKVLILSSEFGEADAVCNLILSLVYYFYNLMPLSRGSSVIAYSVIVGALMASGKEVAGKIPKGKLVDFEAMTAPGSEAFSKVAKSWMNLKSISPSYKTLPSVSETFPTLRSMIEVLNTDSSPRCLKKL
B2: CPSF7 (protein)
chain: MSEGVDLIDIYADEEFNQDPEFNNTDQIDLYDDVLTATSQPSDDRSSSTEPPPPVRQEPSPKPNNKTPAILYTYSGLRNRRAAVYVGSFSWWTTDQQLIQVIRSIGVYDVVELKFAENRANGQSKGYAEVVVASENSVHKLLELLPGKVLNGEKVDVRPATRQNLSQFEAQARKRECVRVPRGGIPPRAHSRDSSDSADGRATPSENLVPSSARVDKPPSVLPYFNRPPSALPLMGLPPPPIPPPPPLSSSFGVPPPPPGIHYQHLMPPPPRLPPHLAVPPPGAIPPALHLNPAFFPPPNATVGPPPDTYMKASAPYNHHGSRDSGPPPSTVSEAEFEDIMKRNRAISSSAISKAVSGASAGDYSDAIETLLTAIAVIKQSRVANDERCRVLISSLKDCLHGIEAKSYSVGASGSSSRKRHRSRERSPSRSRESSRRHRDLLHNEDRHDDYFQERNREHERHRDRERDRHH
B3: PSMA3 (protein)
chain: SSIGTGYDLSASTFSPDGRVFQVEYAMKAVENSSTAIGIRCKDGVVFGVEKLVLSKLYEEGSNKRLFNVDRHVGMAVAGLLADARSLADIAREEASNFRSNFGYNIPLKHLADRVAMYVHAYTLYSAVRPFGCSFMLGSYSVNDGAQLYMIDPSGVSYGYWGCAIGKARQAAKTEIEKLQMKEMTCRDIVKEVAKIIYIVHDEVKDKAFELELSWVGELTNGRHEIVPKDIREEAEKYAKESLKEEDESDDDNM
B4: PURA (protein)
chain: ADRDSGSEQGGAALGSGGSLGHPGSGSGSGGGGGGGGGGGGSGGGGGGAPGGLQHETQELASKRVDIQNKRFYLDVKQNAKGRFLKIAEVGAGGNKSRLTLSMSVAVEFRDYLGDFIEHYAQLGPSQPPDLAQAQDEPRRALKSEFLVRENRKYYMDLKENQRGRFLRIRQTVNRGPGLGSTQGQTIALPAQGLIEFRDALAKLIDDYGVEEEPAELPEGTSLTVDNKRFFFDVGSNKYGVFMRVSEVKPTYRNSITVPYKVWAKFGHTFCKYSEEMKKIQEKQREKRAACEQLHQQQQQQQEETAAATLLLQGEEEGEED
B5: PLOD1 (protein)
chain: KGDAKPEDNLLVLTVATKETEGFRRFKRSAQFFNYKIQALGLGEDWNVEKGTSAGGGQKVRLLKKALEKHADKEDLVILFADSYDVLFASGPRELLKKFRQARSQVVFSAEELIYPDRRLETKYPVVSDGKRFLGSGGFIGYAPNLSKLVAEWEGQDSDSDQLFYTKIFLDPEKREQINITLDHRCRIFQNLDGALDEVVLKFEMGHVRARNLAYDTLPVLIHGNGPTKLQLNYLGNYIPRFWTFETGCTVCDEGLRSLKGIGDEALPTVLVGVFIEQPTPFVSLFFQRLLRLHYPQKHMRLFIHNHEQHHKAQVEEFLAQHGSEYQSVKLVGPEVRMANADARNMGADLCRQDRSCTYYFSVDADVALTEPNSLRLLIQQNKNVIAPLMTRHGRLWSNFWGALSADGYYARSEDYVDIVQGRRVGVWNVPYISNIYLIKGSALRGELQSSDLFHHSKLDPDMAFCANIRQQDVFMFLTNRHTLGHLLSLDSYRTTHLHNDLWEVFSNPEDWKEKYIHQNYTKALAGKLVETPCPDVYWFPIFTEVACDELVEEMEHFGQWSLGNNKDNRIQGGYENVPTIDIHMNQIGFEREWHKFLLEYIAPMTEKLYPGYYTRAQFDLAFVVRYKPDEQPSLMPHHDASTFTINIALNRVGVDYEGGGCRFLRYNCSIRAPRKGWTLMHPGRLTHYHEGLPTTRGTRYIAVSFVDP
B6: LUC7L3 (protein, UniProt O95232 1-432, looked up)
Luc7-like protein 3: MISAAQLLDELMGRDRNLAPDEKRSNVRWDHESVCKYYLCGFCPAELFTNTRSDLGPCEKIHDENLRKQYEKSSRFMKVGYERDFLRYLQSLLAEVERRIRRGHARLALSQNQQSSGAAGPTGKNEEKIQVLTDKIDVLLQQIEELGSEGKVEEAQGMMKLVEQLKEERELLRSTTSTIESFAAQEKQMEVCEVCGAFLIVGDAQSRVDDHLMGKQHMGYAKIKATVEELKEKLRKRTEEPDRDERLKKEKQEREEREKEREREREERERKRRREEEEREKERARDRERRKRSRSRSRHSSRTSDRRCSRSRDHKRSRSRERRRSRSRDRRRSRSHDRSERKHRSRSRDRRRSKSRDRKSYKHRSKSRDREQDRKSKEKEKRGSDDKKSSVKSGSREKQSEDTNTESKESDTKNEVNGTSEDIKSEGDTQSN
B7: NAP1L1 (protein)
chain: ADIDNKEQSELDQDLDDVEEVEEEETGEETKLKARQLTVQMMQNPQILAALQERLDGLVETPTGYIESLPRVVKRRVNALKNLQVKCAQIEAKFYEEVHDLERKYAVLYQPLFDKRFEIINAIYEPTEEECEWKPDEEDEISEELKEKAKIEDEKKDEEKEDPKGIPEFWLTVFKNVDLLSDMVQEHDEPILKHLKDIKVKFSDAGQPMSFVLEFHFEPNEYFTNEVLTKTYRMRSEPDDSDPFSFDGPEIMGCTGCQIDWKKGKNVTLKTIKKKQKHKGRGTVRTVTKTVSNDSFFNFFAPPEVPESGDLDDDAEAILAADFEIGHFLRERIIPRSVLYFTGEAIEDDDDDYDEEGEEADEEGEEEGDEENDPDYDPKKDQNPAEC
B8: SPARC (protein)
chain: APQQEALPDETEVVEETVAEVTEVSVGANPVQVEVGEFDDGAEETEEEVVAENPCQNHHCKHGKVCELDENNTPMCVCQDPTSCPAPIGEFEKVCSNDNKTFDSSCHFFATKCTLEGTKKGHKLHLDYIGPCKYIPPCLDSELTEFPLRMRDWLKNVLVTLYERDEDNNLLTEKQKLRVKKIHENEKRLEAGDHPVELLARDFEKNYNMYIFPVHWQFGQLDQHPIDGYLSHTELAPLRAPLIPMEHCTTRFFETCDLDNDKYIALDEWAGCFGIKQKDIDKDLVI
B9: ERLEC1 (protein)
chain: LPQLSDDIPFRVNWPGTEFSLPTTGVLYKEDNYVIMTTAHKEKYKCILPLVTSGDEEEEKDYKGPNPRELLEPLFKQSSCSYRIESYWTYEVCHGKHIRQYHEEKETGQKINIHEYYLGNMLAKNLLFEKEREAEEKEKSNEIPTKNIEGQMTPYYPVGMGNGTPCSLKQNRPRSSTVMYICHPESKHEILSVAEVTTCEYEVVILTPLLCSHPKYRFRASPVNDIFCQSLPGSPFKPLTLRQLEQQEEILRVPFRRNKEEDLQSTKEERFPAIHKSIAIGSQPVLTVGTTHISKLTDDQLIKEFLSGSYCFRGGVGWWKYEFCYGKHVHQYHEDKDSGKTSVVVGTWNQEEHIEWAKKNTARAYHLQDDGTQTVRCKESDSPHAVTVYMLEPHSCQYILGVESPVICKILDTADENGLLSLPN

The target of one assay is T1, B3GNT2. The assay is described as follows: Co-IP of FLAG-tagged B3GNT2 followed by mass spectrometry. It is filed as cell-based. The note with it: Co-IP followed by mass spectrometry of B3GNT2; C-term tag, FLAG pull-down. Also on record: C-term IgG / C-term flag: unit not given here. In short, it runs like this: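 Co-purifying proteins were identified by fractionated nano-LC–MS/MS on an Orbitrap Elite, run data-dependent. Beforehand, lysates in 1% Triton X-100/HEPES buffer were incubated overnight at 4° C with anti-FLAG or […] and pulled down on Protein A/G magnetic beads for 4 h. Duplicate biological replicates.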
In the case of B1, the C-term flag amounted to 4.
In turn, B2 showed a C-term flag of 9.
Same read-out and setting: then B3, with 0; and B4, with 3; and B5, with 4.
Turning to B6, the C-term flag is listed as 3.
B7: the C-term flag came to 4.
On the same count and under the same terms, the result for B8 reads 4.

The assay is the same for the next values; noted with them: Co-IP followed by mass spectrometry of B3GNT2; C-term tag, IgG pull-down.
Regarding B1, the “C-term IgG” value was 0.
B2: the “C-term IgG” value was determined as 9.
For B3, the “C-term IgG” value is 0.
Consider B4, for which the “C-term IgG” value came out at 0.
Regarding B5, the “C-term IgG” value amounted to 0.
With B6, the “C-term IgG” value came out at 3.
B7: the “C-term IgG” value was found to be 0.
With B8, the “C-term IgG” value is listed as 0.

The same assay, now with this note: Co-IP followed by mass spectrometry of B3GNT2; N-term tag, FLAG pull-down.
For B1, the “N-term FLAG” value stood at 0.
With B2, the “N-term FLAG” value was 12.
Still for that read-out and setting: then B3, with 4; and B4, with 0.
Same read-out and setting: the result for B5 reads 0.
B6: the “N-term FLAG” value was 4.
Regarding B7, the “N-term FLAG” value was 0.
As for B8, the “N-term FLAG” value is listed as 0.

The same assay, now with this note: Co-IP followed by mass spectrometry of B3GNT2; N-term tag, IgG pull-down.
Regarding B1, the “N-term IgG” value is recorded as 0.
On to B2, for which the “N-term IgG” value was 8.
As for B3, the “N-term IgG” value is recorded as 0.
Turning to B4, the “N-term IgG” value is listed as 2.
As for B5, the “N-term IgG” value worked out at 0.
Turning to B6, the “N-term IgG” value turned out to be 2.
In the case of B7, the “N-term IgG” value is 0.
In the case of B8, the “N-term IgG” value is 0.

The assay is the same for the next values; noted with them: Co-IP with FLAG antibody, C-terminally FLAG-tagged B3GNT2; mass spectrometry count, unit not given.
For B9, the C-term flag stood at 3.

The same assay, now with this note: Co-IP with FLAG antibody, N-terminally FLAG-tagged B3GNT2; mass spectrometry count, unit not given.
For B9, the “N-term FLAG” value was 0.

Still in this assay, the particulars now being: Co-IP with IgG control antibody, C-terminally FLAG-tagged B3GNT2; mass spectrometry count, unit not given.
Take B9: the “C-term IgG” value turned out to be 0.

The same assay, now with this note: Co-IP with IgG control antibody, N-terminally FLAG-tagged B3GNT2; mass spectrometry count, unit not given.
Turning to B9, the “N-term IgG” value came to 0.
